The text below walks through data of patent publication US20240026032A1 (Alexion, published 2024).

The target in assay [1] is T1, Human DLAT recombinant protein (ProSpec, Catalog # ENZ-082) (human, UniProt P10515 87-647, limits assumed).
T1 construct: also called DLAT antigen; Dihydrolipoamide Acetyltransferase
T1 sequence (looked up): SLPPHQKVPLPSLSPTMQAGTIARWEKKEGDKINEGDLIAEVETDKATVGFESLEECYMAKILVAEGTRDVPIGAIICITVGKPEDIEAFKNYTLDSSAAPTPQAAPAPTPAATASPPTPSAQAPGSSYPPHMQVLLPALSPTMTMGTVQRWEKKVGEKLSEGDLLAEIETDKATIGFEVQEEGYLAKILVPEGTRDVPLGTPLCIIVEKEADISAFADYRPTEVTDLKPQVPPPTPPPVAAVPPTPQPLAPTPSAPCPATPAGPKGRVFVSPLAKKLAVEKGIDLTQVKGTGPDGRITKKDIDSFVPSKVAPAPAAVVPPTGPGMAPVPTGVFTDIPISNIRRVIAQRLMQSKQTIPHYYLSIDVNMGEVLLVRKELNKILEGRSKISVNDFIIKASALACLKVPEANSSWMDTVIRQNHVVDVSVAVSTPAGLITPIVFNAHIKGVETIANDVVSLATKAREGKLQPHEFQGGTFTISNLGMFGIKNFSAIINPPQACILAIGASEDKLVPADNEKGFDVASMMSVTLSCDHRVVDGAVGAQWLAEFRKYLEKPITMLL
Put plainly: BIAcore kinetics, antibody captured on anti-mouse surface, DLAT (Prospec) as analyte. (In SPR one partner is held on a chip, and binding of the other changes the refractive index at the surface.)

The target of assay [2] is T2, Programmed Death 1 (PD-1) Fc chimera (R&D Systems, Catalog # 1086-PD-050) (human, UniProt Q15116 25-167).
T2 construct: Bought reagent; not shown: Fc part of the bought chimera (captured by anti-human Fc tips)
T2 sequence (Q15116 25-167, change not shown): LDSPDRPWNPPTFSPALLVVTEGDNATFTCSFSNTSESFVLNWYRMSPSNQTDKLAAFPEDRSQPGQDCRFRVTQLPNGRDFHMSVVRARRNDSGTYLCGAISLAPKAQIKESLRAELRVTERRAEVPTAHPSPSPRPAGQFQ
The assay is described as follows: BLI (Octet), PD-1 Fc captured on anti-human Fc tips, TPP-994 at 10 µg/mL in PBS as analyte. As to the method: (§1) Final dissociation in PBS was performed in the last step on the Bio-Layer Interferometry (BLI) data.

Assay [3] addresses T2, Programmed Death 1 (PD-1) Fc chimera …. The assay is described as follows: BLI (Octet), PD-1 Fc captured on anti-human Fc tips, TPP-995 at 10 µg/mL in PBS as analyte. On the procedure: as §1
(In general: Biolayer interferometry detects binding as a change in optical thickness at a sensor tip.)

In assay [4] the target is T1, Human DLAT recombinant protein …. Put plainly: BIAcore, AntiFc_TPP992_DLAT, kinetics from single concentration curve (12.5nM DLAT).
For assay [5], the target named is T2, Programmed Death 1 (PD-1) Fc chimera …. Put plainly: BLI (Octet Red), TPP-992 loaded on anti-human IgG Fc tips, DLAT 10 µg/mL bound first, then PD-1 Fc 12.5 µg/mL. On the procedure:
(§2) Antibodies and antibody fusions were diluted to 16 μg/mL in PBS and loaded onto anti-human IgG Fc tips (ForteBio, Catalog # 18-5064). Human DLAT recombinant protein (ProSpec, Catalog # ENZ-082) was diluted into PBS to 10 μg/mL. […] Finally, a dissociation step in PBS was performed to determine dissociation from the bound antibodies.

The target is the same in assay [6]. Put plainly: BLI (Octet Red), TPP-986 loaded on anti-human IgG Fc tips, DLAT 10 µg/mL bound first, then PD-1 Fc 12.5 µg/mL. On the procedure:
as §2

By Kd is commonly meant a measure of binding affinity in units of concentration. As usually defined, the koff is a measure of how fast the partners let go of each other. By kon is commonly meant the rate constant with which the complex forms.

B1: TPP-1003 (mIgG1 PD2 Ab) (antibody, V domains shown)
VH: EVQLVESGGGLVKPGGSLRLSCAASGFTFGSYSMTWVRQAPGKGLEWVSFISTVSTYIYYPDSVKGRFTISRDNAKNSLYLQMNSLRAEDTAVYYCARVSGRGSAARDGEKGTYYYYMDVWGKGTTVTVSS
VL: SSELTQDPAVSVALGQTVTITCQGDSLRSYYASWYQQKPGQAPVLVIFGKNNRPSGIPDRFSGSRSGNTASLTITGAQAEDEADYFCDSRDSSANHWVFGGGTKLTVLQ
notes: also called mouse IgG1 chimera anti-DLAT antibody PD2
Take B1: in assay [1], the Kd came to 0.242 nM, the koff worked out at 4.68e-05 s⁻¹ and the association rate constant (kon) amounted to 193000 M⁻¹ s⁻¹.

B2: TPP-994 (PD2 with PD-L1 fused to the C-terminus of the heavy chain) (Fab)
heavy: EVQLVESGGGLVKPGGSLRLSCAASGFTFGSYSMTWVRQAPGKGLEWVSFISTVSTYIYYPDSVKGRFTISRDNAKNSLYLQMNSLRAEDTAVYYCARVSGRGSAARDGEKGTYYYYMDVWGKGTTVTVSSASTKGPSVFPLAPSSKSTSGGTAALGCLVKDYFPEPVTVSWNSGALTSGVHTFPAVLQSSGLYSLSSVVTVPSSSLGTQTYICNVNHKPSNTKVDKRVEPKSCGGSSRSSSSGGGGSGGGGFTVTVPKDLYVVEYGSNMTIECKFPVEKQLDLAALIVYWEMEDKNIIQFVHGEEDLKVQHSSYRQRARLLKDQLSLGNAALQITDVKLQDAGVYRCMISYGGADYKRITVKVNA
light: SSELTQDPAVSVALGQTVTITCQGDSLRSYYASWYQQKPGQAPVLVIFGKNNRPSGIPDRFSGSRSGNTASLTITGAQAEDEADYFCDSRDSSANHWVFGGGTKLTVLQPKAAPSVTLFPPSSEELQANKATLVCLISDFYPGAVTVAWKADSSPVKAGVETTTPSKQSNNKYAASSYLSLTPEQWKSHKSYSCQVTHEGSTVEKTVAPTECS
notes: Fab fusion with the human PD-L1 variable-like domain
For the molecule B2, the binding result in assay [2] is given as “binds”.

B3: TPP-995 (PD2 with PD-L1 fused to the N-terminus of the heavy chain) (Fab)
heavy: FTVTVPKDLYVVEYGSNMTIECKFPVEKQLDLAALIVYWEMEDKNIIQFVHGEEDLKVQHSSYRQRARLLKDQLSLGNAALQITDVKLQDAGVYRCMISYGGADYKRITVKVNAGGSSRSSSSGGGGSGGGGEVQLVESGGGLVKPGGSLRLSCAASGFTFGSYSMTWVRQAPGKGLEWVSFISTVSTYIYYPDSVKGRFTISRDNAKNSLYLQMNSLRAEDTAVYYCARVSGRGSAARDGEKGTYYYYMDVWGKGTTVTVSSASTKGPSVFPLAPSSKSTSGGTAALGCLVKDYFPEPVTVSWNSGALTSGVHTFPAVLQSSGLYSLSSVVTVPSSSLGTQTYICNVNHKPSNTKVDKRVEPKSC
light: B2 light
notes: as for B2
Consider B3, for which the binding result in assay [3] is on record as “binds”.

B4: TPP-1004 (mIgG1 PD5 Ab) (antibody)
heavy: QLQLQESGPGLVKPSETLSLTCIVSGGSISRNSYYWGWIRQPPGKGLEWIGSIVYSGSTYHQPSLKSRVTIFLDTSKNQFFLKLTSVTAADTAVYYCARGTRATTWPPPIGYWGQGTLVTVSSAKTTPPSVYPLAPGSAAQTNSMVTLGCLVKGYFPEPVTVTWNSGSLSSGVHTFPAVLQSDLYTLSSSVTVPSSTWPSQTVTCNVAHPASSTKVDKKIVPRDCGCKPCICTVPEVSSVFIFPPKPKDVLTITLTPKVTCVVVDISKDDPEVQFSWFVDDVEVHTAQTKPREEQINSTFRSVSELPIMHQDWLNGKEFKCRVNSAAFPAPIEKTISKTKGRPKAPQVYTIPPPKEQMAKDKVSLTCMITNFFPEDITVEWQWNGQPAENYKNTQPIMDTDGSYFVYSKLNVQKSNWEAGNTFTCSVLHEGLHNHHTEKSLSHSPGK
light: QSVLTQPPSVSAAPGQKVTVSCFGSSSNIGNYFASWYQQLPGAAPRLLIYGNNERPSGIPDRFSGSKSGTSATLVITGLQTGDEAAYYCATWDSSLSAVVFGGGTKLTVLGQPRADAAPTVSIFPPSSEQLTSGGASVVCFLNNFYPKDINVKWKIDGSERQNGVLNSWTDQDSKDSTYSMSSTLTLTKDEYERHNSYTCEATHKTSTSPIVKSFNRNEC
notes: also called murine IgG1 PD5; Mouse PD5
Consider B4, for which, in assay [1], the Kd stood at 0.526 nM, the koff is 1.94e-05 s⁻¹ and the kon amounted to 36900 M⁻¹ s⁻¹.

B5: TPP-1005 (mIgG1 DWZ Ab) (antibody, V domains shown)
VH: EVQLLESGGDVVQPGGSLRLSCVASGFTLTNYVTAWVRRRPGKGLEWISGMTHGAVATYYSDSVRGRFSSSRDTSRSTLYLQMNDLTVEDTAIYYCAKSLHRSGTSLSYWGQGTLVTVSS
VL: QSVLTQPPSASGTPGQNINISCSGTTSNIGGSNVDWYQHVPGTAPKLFIHSNNQRPSGVPARFSASKSGTSASLAISGLQSEDEADYYCATWDVRLLAYVFGSATEVTVLR
notes: also called murine IgG1 DWZ
In the case of B5, in assay [1], the Kd was determined as 1.72 nM, the koff was found to be 0.000149 s⁻¹ and the kon worked out at 86300 M⁻¹ s⁻¹.

B6: TPP-992, human IgG2/4 PD5 antibody, N-terminus PD-L1 LC (antibody)
heavy: QLQLQESGPGLVKPSETLSLTCIVSGGSISRNSYYWGWIRQPPGKGLEWIGSIVYSGSTYHQPSLKSRVTIFLDTSKNQFFLKLTSVTAADTAVYYCARGTRATTWPPPIGYWGQGTLVTVSSASTKGPSVFPLAPCSRSTSESTAALGCLVKDYFPEPVTVSWNSGALTSGVHTFPAVLQSSGLYSLSSVVTVPSSNFGTQTYTCNVDHKPSNTKVDKTVERKCCVECPPCPAPPVAGPSVFLFPPKPKDTLMISRTPEVTCVVVDVSQEDPEVQFNWYVDGVEVHNAKTKPREEQFNSTYRVVSVLTVLHQDWLNGKEYKCKVSNKGLPSSIEKTISKAKGQPREPQVYTLPPSQEEMTKNQVSLTCLVKGFYPSDIAVEWESNGQPENNYKTTPPVLDSDGSFFLYSRLTVDKSRWQEGNVFSCSVMHEALHNHYTQKSLSLSLGK
light: FTVTVPKDLYVVEYGSNMTIECKFPVEKQLDLAALIVYWEMEDKNIIQFVHGEEDLKVQHSSYRQRARLLKDQLSLGNAALQITDVKLQDAGVYRCMISYGGADYKRITVKVNAGGSSRSSSSGGGGSGGGGQSVLTQPPSVSAAPGQKVTVSCFGSSSNIGNYFASWYQQLPGAAPRLLIYGNNERPSGIPDRFSGSKSGTSATLVITGLQTGDEAAYYCATWDSSLSAVVFGGGTKLTVLGQPKANPTVTLFPPSSEELQANKATLVCLISDFYPGAVTVAWKADGSPVKAGVETTKPSKQSNNKYAASSYLSLTPEQWKSHRSYSCQVTHEGSTVEKTVAPTECS
notes: Antibody fused with the human PD-L1 variable-like domain
Take B6: in assay [4], the Kd stood at 0.184 nM, the koff turned out to be 0.000238 s⁻¹ and the kon stood at 1.29e+06 M⁻¹ s⁻¹. Also, the binding result in assay [5] is “binds”.

B7: TPP-986, human IgG2/4 PD5 antibody, N-terminus PD-L1 HC (antibody)
heavy: FTVTVPKDLYVVEYGSNMTIECKFPVEKQLDLAALIVYWEMEDKNIIQFVHGEEDLKVQHSSYRQRARLLKDQLSLGNAALQITDVKLQDAGVYRCMISYGGADYKRITVKVNAGGSSRSSSSGGGGSGGGGQLQLQESGPGLVKPSETLSLTCIVSGGSISRNSYYWGWIRQPPGKGLEWIGSIVYSGSTYHQPSLKSRVTIFLDTSKNQFFLKLTSVTAADTAVYYCARGTRATTWPPPIGYWGQGTLVTVSSASTKGPSVFPLAPCSRSTSESTAALGCLVKDYFPEPVTVSWNSGALTSGVHTFPAVLQSSGLYSLSSVVTVPSSNFGTQTYTCNVDHKPSNTKVDKTVERKCCVECPPCPAPPVAGPSVFLFPPKPKDTLMISRTPEVTCVVVDVSQEDPEVQFNWYVDGVEVHNAKTKPREEQFNSTYRVVSVLTVLHQDWLNGKEYKCKVSNKGLPSSIEKTISKAKGQPREPQVYTLPPSQEEMTKNQVSLTCLVKGFYPSDIAVEWESNGQPENNYKTTPPVLDSDGSFFLYSRLTVDKSRWQEGNVFSCSVMHEALHNHYTQKSLSLSLGK
light: QSVLTQPPSVSAAPGQKVTVSCFGSSSNIGNYFASWYQQLPGAAPRLLIYGNNERPSGIPDRFSGSKSGTSATLVITGLQTGDEAAYYCATWDSSLSAVVFGGGTKLTVLGQPKANPTVTLFPPSSEELQANKATLVCLISDFYPGAVTVAWKADGSPVKAGVETTKPSKQSNNKYAASSYLSLTPEQWKSHRSYSCQVTHEGSTVEKTVAPTECS
notes: as for B6
B7: the binding result in assay [6] was “binds”.
